According to patent US7981863B2, “Treatment of Parkinson's disease with PDGF” (Neuronova AB, priority 2001, dated 2011):

Legend:
Mouse Neural Stem Cells = assay: Neuronal differentiation (β-III Tubulin) of adult mouse neural stem cells; type: cell-based; details: 1 nM, 7 days
Protocol: Adult mouse neurosperes were dissociated with trypsin (Gibco) into single cells and transferred to poly-D-Lysine plates (BD) in the above culture medium, without growth factors, supplemented with 1% Fetal Calf Serum (Gibco). The cells were incubated over night to adhere to the plate. The medium was changed to culture medium, without growth factors, supplemented with 1 nM PDGF-AA or PDFG-BB (both from R&D Systems). The medium with new substance added every second day. The cells were incubated for a total of 7 days.
The cells were washed two times with PBS (Gibco) and fixed for 15 min RT with 4% Formaldehyde (Sigma) and permeabilized 20 min RT in 0.1% Triton X-100 (Sigma) in PBS. After fixation and permeabilization the cells were labelled with mouse monoclonal anti-β-III Tubulin (1:500 Promega). Primary antibody was visualized with anti mouse Texas-Red (1:100 Vector Laboratories). All antibodies were diluted in PBS with 0.1% Triton X-100.
The cells were washed twice with PBS (Gibco) and lysed with 200 ul lysis buffer/well. The lysis buffer contained PBS, 0.1% Triton X-100, 1 mM EDTA and 1 tab1. Protease inhibitor cocktail (Roche). The samples were run on a 4-12% Bis-Tris gel (Novex) under reduced conditions with MOPS buffer (Novex) and blotted onto a Hybond ECL nitrocellulose membrane (Amersham Biotech). Blocked in 5% ECL-Block (Amersham Biotech) in PBS+0.1% Tween 20 (Sigma). The membranes were labelled with mouse monoclonal anti-β-III Tubulin (1:5000 Promega). The primary antibody was detected using a secondary antibody anti-mouse-HRP (1:10000 Amersham Biotech) and ECL Plus+ Western Blot Detection Kit (Amersham Biotech). All antibodies were diluted in PBS with 0.1% Triton X-100, 1% ECL Block. The signal were then captured on ECL Hyper Film (Amersham Biotech)

MPTP-lesioned mice = assay: MPTP-induced neuronal loss in substantia nigra pars compacta, intraventricular infusion; type: in vivo, mouse; details: for Total number of tyrosine hydroxylase neurons in the bilateral substantia nigra pars compacta: PDGF-BB intraventricularly 0.1 μg/h/kg for three days, two months later, Mean ± S.E.M
Protocol: Ten-week old male C57B1/6 mice (25 g, B&K Universal, Stockholm, Sweden).
PDGF-BB (Sigma) was administered directly into the right lateral ventricle of the brain using osmotic pumps (Alza 1003D, delivery of 1.0 μl/h for three days) and brain infusion kits. The drug solution was prepared as follows: 10 μg PDGF-BB was dissolved in 10 μl 1M HAc, after which pH was adjusted to 7.4 by adding 10 μl NaOH. A buffer was added (100 ml 0.01M PBS containing 5 mg/ml BSA and 20 mM Hepes) to a final volume of 4,000 μl. Each minipump was connected to a brain infusion needle, which was stereotaxically placed in the right lateral ventricle of the mouse brain in deeply anesthetized mice (chloral hydrate 60 mg/kg intraperitoneal). The pump was placed subcutaneously in the neck. The delivery rate of PDGF-BB was 0.1 μg/h/kg body weight. ^3H-thymidine (6.7 Ci/ml, NEN) was given for three days via another Alzet pump which was placed intraperitoneally.
One hour after the pumps were inserted, the neurotoxin 1-methyl-4-phenyl-1,2,3,6-tetrahydropyridine (MPTP HCl, Sigma) was given subcutaneously (40 mg/kg).
Two months later, animals were anesthetized with choral hydrate (60 mg/kg ip) and sacrificed by intracardial infusion of fixative (4% paraformaldehyde in 0.1 M phosphate buffered saline (PBS) containing 0.4% picric acid. After dissection, postfixation in the same fixative continued for 1.5 h followed by cryoprotection. After dissection of the midbrain, the two sides of the brain were separated with a cut along the ventro-dorsal midline and the tissue was postfixed in the same solution and cryoprotected in sucrose. Cryostat sections were prepared as follows: a randomly chosen half-brain was cut into 40 μm thick sections through the full rostro-caudal extension of substantia nigra pars compacta. A randomly chosen series of every 6th section was taken to perform free-floating immunohistochemistry using a polyclonal anti-tyrosine hydroxylase antibody (diluted 1:400, Pel-Freez) in order to identify dopaminergic neurons in the tissue. To visualize the antibody, the avidin-biotin peroxidase kit (Vector) with 0.03% DAB as chromagen was used adding 0.01% H2O2. Cresyl violet was employed to identify the nucleolus, Nissl substance and glia cells (Chan et al., 1997; Walters et al., 1999). The other half of the brain was sectioned in 10 μm thick sections on glass and a randomly chosen series of every 6th section was immunohistochemically stained for tyrosine hydroxylase in dopaminergic neurons as previously described. To detect incorporation of the ^3H-thymidine nucleotide in brain cells, the sampled slides were dipped in NTB2 nuclear track emulsion (Kodak) and stored in light-tight boxes at −20° C. for four weeks. […]

B1: PDGF-BB: human recombinant PDGF-BB, platelet derived growth factor B-chain homodimer (protein)
chain: SLGSLTIAEPAMIAECKTRTEVFEISRRLIDRTNANFLVWPPCVEVQRCSGCCNNRNVQCRPTQVQLRPVQVRKIEIVRKKPIFKKATVTLEDHLACKCETVAAARPVT
In the case of B1, the “number of β-III Tubulin positive cells in culture” value (Mouse Neural Stem Cells; compared to the control, FIG. 5) is reported as “significantly increase the number of β-III Tubulin positive cells”, the “levels of β-III Tubulin protein (Western blot)” value (Mouse Neural Stem Cells; compared with the control, FIG. 6) is reported as “significantly increased levels of β-III Tubulin protein” and the “neuronal differentiation of cultured mouse neural stem cells/progenitors” value (Mouse Neural Stem Cells; FIG. 5 and FIG. 6) is reported as “trigger neuronal differentiation”. The “cell number in the substantia nigra” value (MPTP-lesioned mice; MPTP lesioned mice after infusion of PDGF) was “double”, the “Total number of tyrosine hydroxylase neurons in the bilateral substantia nigra pars compacta” value (MPTP-lesioned mice; MPTP-lesioned (40 mg/kg s.c.)) was 10,000 ± 200 and the “MPTP-induced loss of tyrosine hydroxylase positive nerve cells” value (MPTP-lesioned mice; after an MPTP lesion) was “completely counteracted”. For the same molecule, the “Total number of tyrosine hydroxylase neurons in the bilateral substantia nigra pars compacta” value (MPTP-lesioned mice; no MPTP lesion) was 12,300 ± 300.
